This passage reports stoichiometry N results from PMC8871097.

The target of test [1] is Pea seed ferritin purified from pea seed milk boiled for 5 min (Pisum sativum (pea)). As to the kind of experiment: native gel or EMSA; Native-PAGE, 5-20% gradient gel, samples not boiled, 180 V, 4 °C, Coomassie brilliant blue R-250; assembly state of the purified ferritin. A general note: A gel shift assay detects complexes by their altered migration in electrophoresis.
In test [2] the target is Pea seed ferritin purified from pea seed milk boiled for 10 min (Pisum sativum (pea)). Described as above.

B1: Pea seed ferritin purified from pea seed milk boiled for 5 min (natural protein)
chain: TTAPLTGVIFEPFEEVKKDYLAVPSVPLVSLARQNFADECESVINEQINVEYNASYVYHSLFAYFDRDNVALKGFAKFFKESSEEHREHAEKLMKYQNTRGGRVVLHPIKDVPSEFEHVEKGDALYAMELALSLEKLTNEKLLNVHSVAERNNDLEMTHFIEGEYLAEQVEAIKKISEYVAQLRRVGKGHGVWHFDQRLLHGVHGA
modifications: not checked
By stoichiometry N is commonly meant a count of units in the complex or per binding partner. B1 returned a stoichiometry N in test [1] of 24.

B2: Pea seed ferritin purified from pea seed milk boiled for 10 min (natural protein)
chain: TTAPLTGVIFEPFEEVKKDYLAVPSVPLVSLARQNFADECESVINEQINVEYNASYVYHSLFAYFDRDNVALKGFAKFFKESSEEHREHAEKLMKYQNTRGGRVVLHPIKDVPSEFEHVEKGDALYAMELALSLEKLTNEKLLNVHSVAERNNDLEMTHFIEGEYLAEQVEAIKKISEYVAQLRRVGKGHGVWHFDQRLLHGVHGA
modifications: not checked
Turning to B2, the stoichiometry N in test [2] amounted to 24.
